These results are taken from PMC12905498 (Biochemical Journal, 2026).

The chains are these.
B1: Plasmodium falciparum HAP2 domain 3 (PfHAP2 D3 HisAvi), deglycosylated (domain or fragment)
chain: VSYGTITHITIPKDCSSNQTNSKECILVVHTWNNNKTIGANFSCHVLCVDKSTQQVATHISPISKINAHIDANKNYAFYFIIKFLINKKITSNCTAILKDADGRECSKLSFNLTSKETIN
B2: Pfs48/45 Domain 3 (domain or fragment)
chain: KVIHGCNFSSNVSSKHTFTDSLDISLVDDSAHISCNVHLSEPKYNHLVGLNCPGDIIPDCFFQVYQPESEELEPSNIVYLDSQINIGDIEYYEDAEGDDKIKLFGIVGSIPKTTSFTCICKKDKKSAYMTVTIDSA
notes: source: Sf21 cells (baculovirus), purified as PfHAP2 D3 (Ni-NTA, SEC)
B3: Plasmodium berghei HAP2 domain 3 (domain or fragment)
chain: VSIATITHVTIPNDCASNNSNSNECVLIIHVWNNSKFVGSNFSCSIACTNKETDQLASHINPIAPVRAFIGPNKNYAFYFIIKFLINKEITTLCKAIVKDSNGKECSIEEFELQSKESVH
notes: as for B2
B4: Plasmodium vivax HAP2 domain 3 (domain or fragment)
chain: VSTATITHITTPKNCSSNQSESKDCVLIVHTWNNSANVGSNFSCHVICTDKETGKIATHIGPISPVNAFIDANKNYAFYFIIKFLINKEIKTMCKAVLRDSNGKECSKEDFLLTSKE
notes: as for B2
B5: anti-PbHAP2 D3 mAb 6.14 (variable regions in AbVec-hIgG1 and AbVec-IgKappa) (antibody, V domains shown)
VH: EVQLVESGGGLVKPGGSLKLSCAASEFTFSDYGMHWVRQAPEKGLEWVASISSGSNSIYYSDTVKGRFTISRDNAKSILFLQMTSLRSEDTAMYYCSREAYFAMDYWGQGTSVTVSS
VL: DIQMTQSPSSLSAILGGKVTITCKASQDIHKYIAWYQHKPGKGPRLLIYYTSTLQPGIPSRFSGSGSGRDYSFSISNLEPEDVATYFCLQYDNLYTFGGGTKVEIE
notes: also called anti-PbHAP2 mAb 6.14; source: Expi293 cells, transient transfection (1:1 light and heavy chain plasmids), purified as the nanobody-Fcs (HiTrap PrismA)

Common to all, as to settings: both partners purified
Assay [1] addresses T1, WNbFc 333 (nanobody WNb 333 fused to hinge and Fc of human IgG1) (alpaca).
T1 construct: also called WNb 333 nanobody-Fc; source: Expi293 cells, transient transfection, purified (HiTrap PrismA)
In words: BLI; affinity: nanobody-Fcs or antibodies (5 µg/ml) loaded on anti-human IgG Fc Capture (AHC) tips, two-fold dilution series of antigen; PBS pH 7.4, 0.1% BSA, 0.05% TWEEN-20, 25°C; 1:1 Langmuir model; mean of two experiments.

The target in assay [2] is T2, WNbFc 334 (nanobody WNb 334 fused to hinge and Fc of human IgG1) (alpaca).
T2 construct: also called WNb 334 nanobody-Fc; source: Expi293 cells, transient transfection, purified (HiTrap PrismA)
The assay is described as above.

Assay [3] deals with T3, WNbFc 335 (nanobody WNb 335 fused to hinge and Fc of human IgG1) (alpaca).
T3 construct: also called WNb 335 nanobody-Fc; source: Expi293 cells, transient transfection, purified (HiTrap PrismA)
The description is as above.

The target in assay [4] is T1, WNbFc 333 (nanobody WNb 333 fused to …). In words: ELISA. In general terms: ELISA stands for enzyme-linked immunosorbent assay.
For assay [5], the target named is T2, WNbFc 334 (nanobody WNb 334 fused to …). In words: ELISA.
Assay [6] concerns the target T3, WNbFc 335 (nanobody WNb 335 fused to …). In words: ELISA.
The target in assay [7] is T1, WNbFc 333 (nanobody WNb 333 fused to …). Briefly: BLI. Background: In BLI a coated tip is dipped into the sample, and binding shifts an interference pattern.
In assay [8] the target is B1. Briefly: BLI; affinity: nanobody-Fcs or antibodies (5 µg/ml) loaded on anti-human IgG Fc Capture (AHC) tips, two-fold dilution series of antigen; PBS pH 7.4, 0.1% BSA, 0.05% TWEEN-20, 25°C; 1:1 Langmuir model; mean of two experiments.

Usually Kd stands for the equilibrium constant for the complex coming apart. A lower Kd goes with tighter binding. As to B1, the Kd in assay [1] is 15.8 nM; in assay [2], 26.1 nM; in assay [3], 50.8 nM.
As to B2, the binding result in assay [4], in assay [5] and in assay [6] was “no binding (tested: 125 nM)” each time.
As to B3, the binding result in assay [7] and in assay [2] was “binds” throughout.
Consider B4, for which the binding result in assay [7] is “binds”.
Take B5: in assay [8], the binding result is recorded as “no binding”.
